Measured values reported in US20210155689A1 (SHANGHAI PHARMAEXPLORER, published 2021).

T1: human LAG-3 on cells (HEK293-hLAG-3 stable cell line) (human, UniProt P18627 23-525)
T1 sequence: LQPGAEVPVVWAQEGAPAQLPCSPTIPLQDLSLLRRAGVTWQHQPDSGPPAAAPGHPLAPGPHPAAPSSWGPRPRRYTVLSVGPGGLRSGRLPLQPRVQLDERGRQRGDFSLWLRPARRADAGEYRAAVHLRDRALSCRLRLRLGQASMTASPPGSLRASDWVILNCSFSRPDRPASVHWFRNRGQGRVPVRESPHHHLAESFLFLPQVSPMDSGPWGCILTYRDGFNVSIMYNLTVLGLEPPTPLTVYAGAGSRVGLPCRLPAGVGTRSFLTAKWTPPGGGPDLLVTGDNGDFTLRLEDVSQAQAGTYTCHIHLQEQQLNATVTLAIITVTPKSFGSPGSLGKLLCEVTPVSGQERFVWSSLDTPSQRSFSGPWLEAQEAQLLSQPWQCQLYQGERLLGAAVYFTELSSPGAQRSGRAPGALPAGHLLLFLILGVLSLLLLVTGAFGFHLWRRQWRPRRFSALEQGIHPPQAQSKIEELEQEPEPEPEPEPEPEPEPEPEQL

T2: LAG-3-hFc protein (human LAG-3 extracellular region with hFc tag) (human, UniProt P18627 23-450)
T2 construct: also called hLAG-3-hFc; LAG-3 protein; not shown: human IgG Fc fragment (hFc) of the pCpC vector
T2 sequence: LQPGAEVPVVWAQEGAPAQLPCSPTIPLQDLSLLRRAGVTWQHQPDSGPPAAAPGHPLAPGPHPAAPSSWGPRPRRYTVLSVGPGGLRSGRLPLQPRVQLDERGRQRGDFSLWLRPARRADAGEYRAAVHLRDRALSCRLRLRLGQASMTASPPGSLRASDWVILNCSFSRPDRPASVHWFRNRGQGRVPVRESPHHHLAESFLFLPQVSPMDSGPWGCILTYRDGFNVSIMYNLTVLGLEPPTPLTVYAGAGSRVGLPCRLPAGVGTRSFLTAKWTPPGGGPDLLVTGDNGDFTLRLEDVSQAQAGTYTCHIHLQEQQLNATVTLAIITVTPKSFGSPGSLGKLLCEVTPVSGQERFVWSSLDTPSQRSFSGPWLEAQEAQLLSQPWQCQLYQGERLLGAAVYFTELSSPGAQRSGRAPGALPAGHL


Tests used:
[1] = molecular target: T1, human LAG-3 on cells (HEK293-hLAG-3 …); assay: cell-based or functional assay
[2] = molecular target: T2, LAG-3-hFc protein (human LAG-3 …); assay: FACS, inhibition of LAG-3-hFc binding to MHC II on Raji cells, antibody 7.407 nM
Protocol: The FACS reaction plate incubating the Raji cells was centrifuged to discard the supernatant. The above mixture was added as 100 μl per well to Raji cells and incubated on ice for 1-2 hours. The plate was washed twice with blocking solution (PBS, 2% fetal bovine serum) by centrifugation, added with 100 microliters of fluorescent (Alexa 488)-labeled secondary antibodies per well, and incubated on ice for 1.0 hours. The plate was washed 2-3 times by centrifugation with blocking solution (PBS, 2% fetal bovine serum), added with 100 microliters of PBS per well to suspend cells, and detected using FACS (FACS Calibur, BD) and the results were analyzed. Wherein, the IgG control was murine IgG, and the data in the table is the inhibition rate (%).

| Binder | IL-2 production, SEB-dependent PBMC stimulation test, 0.0032 ug/ml, N = 1 [1] | IL-2 production, SEB-dependent PBMC stimulation test, 0.0032 ug/ml, N = 2 [1] | IL-2 production, SEB-dependent PBMC stimulation test, 0.016 ug/ml, N = 1 [1] | IL-2 production, SEB-dependent PBMC stimulation test, 0.016 ug/ml, N = 2 [1] | IL-2 production, SEB-dependent PBMC stimulation test, 0.08 ug/ml, N = 1 [1] | IL-2 production, SEB-dependent PBMC stimulation test, 0.08 ug/ml, N = 2 [1] | IL-2 production, SEB-dependent PBMC stimulation test, 0.4 ug/ml, N = 1 [1] | IL-2 production, SEB-dependent PBMC stimulation test, 0.4 ug/ml, N = 2 [1] | IL-2 production, SEB-dependent PBMC stimulation test, 2 ug/ml, N = 1 [1] | IL-2 production, SEB-dependent PBMC stimulation test, 2 ug/ml, N = 2 [1] | IL-2 production, SEB-dependent PBMC stimulation test, 10 ug/ml, N = 1 [1] | IL-2 production, SEB-dependent PBMC stimulation test, 10 ug/ml, N = 2 [1] | Inhibition rate (%) [2] |
| --- | --- | --- | --- | --- | --- | --- | --- | --- | --- | --- | --- | --- | --- |
| 409B11E12 mouse-human chimeric antibody (antibody, V domains shown, also called mAb104-409B11E12) VH: QVQLQQSGAELVRPGASVTLSCKASGYTFTDYEMHWVKQTTVHGLEWIGATDPETSYSAYNQKFKGKAILTADKSSSTAYMELRSLTSEDSAVYYCIATGWNDWGQGTSLTVSS VL: DLKMTQSPSSMYASLGERVTITCKASQDINSYLSWFQQKPGKSPKTLIYRANRLLDGVPSRFSGSGSGQDYSLTISSLEYEDMGIYYCLQYDEFPYTFGGGTKLEIK | 1340 pg/mL | 1190 pg/mL | 1720 pg/mL | 1230 pg/mL | 1550 pg/mL | 1530 pg/mL | 2820 pg/mL | 1990 pg/mL | 2540 pg/mL | 1920 pg/mL | 3140 pg/mL | 3010 pg/mL | 95.1% |
| 409D4E10 mouse-human chimeric antibody (antibody, V domains shown, also called mAb112-409D4E10) VH: QVQLQQSGAELVRPGASVTLSCKASGNTFTDYEMHWVKQTPVHGLEWIGATDPETDNTAYNQKFKGKAILTTDKSSSTAYMELRSLTSEDSAVYYCITSGWNDWGQGTSLTVSS VL: DIKMTQSPSSMYASLGERVTITCKASQDINSYLSWFQQKPGKSPKTLIYRANRLLDGVPSRFSGSGSGQDYSLTISSLEYEDMGIYYCLQYNEFPYTFGGGTKLEIK | 1660 pg/mL | 1240 pg/mL | 1250 pg/mL | 1450 pg/mL | 1630 pg/mL | 1420 pg/mL | 2170 pg/mL | 2160 pg/mL | 2770 pg/mL | 1940 pg/mL | 2740 pg/mL | 2100 pg/mL | 94.7% |
